± gives the standard deviation of the averaged measurements.
Tests used:
Saccharomyces cerevisiae [1] = assay: protein stability index of tFT-peptide fusion (C-terminal peptide) (PSI (0-1 scale)); higher = more stable (slower turnover); conditions: genetic background: wild type; temperature: 30 C
Saccharomyces cerevisiae [2] = assay: as above
Experimental: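 MPS profiling in S. cerevisiae of the tFT-X12 degron library: putative degron peptides plus stable controls, 12 aa, fused to the C-terminus of a sfGFP-mCherry timer. Cells are FACS-sorted into 8 mCherry/sfGFP bins and deep-sequenced. PSI runs from 0 (unstable) to 1 (stable). Backgrounds are wild type, das1Δ and doa10Δ at 30 °C, and wild type, das1Δ, cdc34-1 and cdc53-1 at 37 °C; 2-3 technical replicates each.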

[3] = genetic background: cdc34-1, temperature: 37 C
[4] = genetic background: cdc53-1, temperature: 37 C
[5] = genetic background: das1 deletion, temperature: 30 C
[6] = genetic background: das1 deletion, temperature: 37 C
[7] = genetic background: doa10 deletion, temperature: 30 C
[8] = genetic background: wild type, temperature: 30 C
[9] = genetic background: wild type, temperature: 37 C
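Also: PSI is a weighted mean of sequencing reads over stability bins, variants kept only with over 10 reads, mCherry proximal and sfGFP distal, peptide attached via GGGS linker.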

Row | Sequence | protein stability index (Saccharomyces cerevisiae [1]) | protein stability index (Saccharomyces cerevisiae [2]; [3]) | protein stability index (Saccharomyces cerevisiae [2]; [4]) | protein stability index (Saccharomyces cerevisiae [2]; [5]) | protein stability index (Saccharomyces cerevisiae [2]; [6]) | protein stability index (Saccharomyces cerevisiae [2]; [7]) | protein stability index (Saccharomyces cerevisiae [2]; [8]) | protein stability index (Saccharomyces cerevisiae [2]; [9])
1 | ASWRYMFPVTLG | 0.367 ± 0.032 | 0.576 ± 0.031 | 0.574 ± 0.045 | 0.555 ± 0.039 | 0.685 ± 0.031 | 0.383 ± 0.021 | 0.306 ± 0.039 | 0.4618 ± 0.0041
2 | FLWAVSLCRSLV | 0.312 ± 0.029 | 0.607 ± 0.029 | 0.655 ± 0.022 | 0.548 ± 0.035 | 0.662 ± 0.015 | 0.178 ± 0.017 | 0.218 ± 0.026 | 0.385 ± 0.014
3 | VCNSIPLTPPPA | – | 0.679 ± 0.031 | 0.7272 ± 0.0045 | 0.618 ± 0.025 | 0.716 ± 0.015 | 0.6171 ± 0.00098 | 0.641 ± 0.026 | 0.703 ± 0.033
4 | TWGGGRVSLGGG | – | 0.316 ± 0.038 | 0.4048 ± 0.0019 | 0.361 ± 0.013 | 0.4176 ± 0.0019 | 0.363 ± 0.01 | 0.364 ± 0.017 | 0.407 ± 0.028
5 | GFLGMFFFWFAL | – | 0.588 ± 0.0078 | 0.648 ± 0.05 | 0.4628 ± 0.0043 | 0.635 ± 0.011 | 0.461 ± 0.012 | 0.473 ± 0.022 | 0.579 ± 0.018
6 | PSPHRAPPGGHP | – | 0.68 ± 0.059 | 0.699 ± 0.026 | 0.6636 ± 0.0019 | 0.7271 ± 0.0067 | 0.673 ± 0.03 | 0.688 ± 0.04 | 0.701 ± 0.0029
7 | CLCLICFLCWFA | – | 0.475 ± 0.037 | 0.546 ± 0.012 | 0.408 ± 0.0097 | 0.514 ± 0.0052 | 0.387 ± 0.01 | 0.384 ± 0.038 | 0.4958 ± 0.0039
8 | GGGGMGRRVGVG | – | 0.361 ± 0.036 | 0.4177 ± 0.0019 | 0.396 ± 0.0093 | 0.4202 ± 0.0022 | 0.4009 ± 0.0015 | 0.398 ± 0.011 | 0.415 ± 0.0084
9 | SVPCWVFLFCLA | – | 0.349 ± 0.01 | 0.416 ± 0.028 | 0.281 ± 0.03 | 0.462 ± 0.02 | 0.184 ± 0.016 | 0.227 ± 0.025 | 0.4033 ± 0.0033
10 | LPPTPPLSPPPH | – | 0.644 ± 0.025 | 0.688 ± 0.0077 | 0.435 ± 0.028 | 0.5935 ± 0.0017 | 0.414 ± 0.0084 | 0.433 ± 0.014 | 0.5864 ± 0.005
11 | RKKIRTYINENV | – | 0.686 ± 0.079 | 0.699 ± 0.038 | 0.612 ± 0.018 | 0.766 ± 0.05 | 0.271 ± 0.018 | 0.334 ± 0.04 | 0.568 ± 0.015
12 | AQCRGGGLSGVG | – | 0.572 ± 0.023 | 0.6409 ± 0.0041 | 0.566 ± 0.016 | 0.615 ± 0.014 | 0.57 ± 0.013 | 0.562 ± 0.011 | 0.603 ± 0.02
13 | LSPRPPAPYYSP | – | 0.657 ± 0.067 | 0.733 ± 0.0089 | 0.662 ± 0.041 | 0.725 ± 0.014 | 0.676 ± 0.03 | 0.662 ± 0.028 | 0.7271 ± 0.0069
14 | YVLLDFFFFFLV | – | 0.216 ± 0.044 | 0.329 ± 0.029 | 0.24 ± 0.017 | 0.356 ± 0.043 | 0.211 ± 0.0032 | 0.182 ± 0.06 | 0.255 ± 0.032
15 | RPPPTPRSVLLN | – | 0.67 ± 0.021 | 0.7154 ± 0.0015 | 0.668 ± 0.011 | 0.71 ± 0.038 | 0.265 ± 0.024 | 0.286 ± 0.024 | 0.506 ± 0.011
16 | VWWWGGVGWLMV | – | 0.571 ± 0.047 | 0.601 ± 0.026 | 0.52 ± 0.01 | 0.625 ± 0.025 | 0.386 ± 0.015 | 0.412 ± 0.019 | 0.544 ± 0.012
17 | VSGSFRVCFRVW | – | 0.612 ± 0.048 | 0.629 ± 0.0076 | 0.521 ± 0.032 | 0.608 ± 0.015 | 0.538 ± 0.024 | 0.517 ± 0.012 | 0.5981 ± 0.004
18 | APPSFPPLLLLS | – | 0.664 ± 0.028 | 0.697 ± 0.038 | 0.6054 ± 0.002 | 0.71 ± 0.016 | 0.254 ± 0.018 | 0.286 ± 0.017 | 0.499 ± 0.034
19 | VSGITLPFLMFH | – | 0.287 ± 0.055 | 0.242 ± 0.034 | 0.348 ± 0.022 | 0.458 ± 0.012 | 0.635 ± 0.0033 | 0.329 ± 0.063 | 0.426 ± 0.0043
20 | LCLPLYIRILSF | – | 0.0413 ± 0.0034 | 0.052 ± 0.0091 | 0.145 ± 0.03 | 0.18258 ± 1.6e-05 | 0.161 ± 0.0023 | 0.129 ± 0.016 | 0.126 ± 0.013
21 | ALRLPPPPFSLY | – | 0.677 ± 0.045 | 0.757 ± 0.025 | 0.561 ± 0.05 | 0.72 ± 0.035 | 0.174 ± 0.0065 | 0.237 ± 0.036 | 0.461 ± 0.023

Source: the supplement of paper PMC10724198
